Measured values from patent US20230272055A1 (Incyte, published 2023).

Target: T1, Recombinant MBP-mutCALR Type 1 fusion protein (human)
T1 construct: custom made at Cepter; also called recombinant mutCALR protein
Assay: SPR, IgG captured, 1:1 fit, Exp. 2
Description: Experiment 2: Recombinant MBP-mutCALR Type 1 fusion protein was custom made at Cepter (cepterbiopartners.com). Data for the interaction of antibodies with recombinant mutCALR protein were collected at 25° C. on a Biacore 8K instrument (Cytiva, Marlborough, Mass.), and all reagents were obtained from Cytiva unless otherwise specified. The experiments were conducted using Tris-buffered saline (pH 7.2), 0.005% Surfactant P20, 1 mM CaCl₂) as running buffer. To prepare the capture surfaces, anti-human IgG (Fc) antibodies (Product #29234600) was amine-coupled onto a CM4 chip (Product #BR100534) under standard conditions using an Amine Coupling Kit (Product #BR100050). […] The kinetics parameters were obtained by applying 1:1 binding model to fit the data from multiple-cycle injection experiments using Biacore Insight Evaluation software.

Row | Binder | Kd [nM] | koff [s⁻¹] | kon [M⁻¹ s⁻¹]
1 | anti-mutCALR antibody clone 134 (antibody, human IgG1, lambda, N297A, human IgG1 N297A variant of clone 15) heavy: not shown light: SYVLTQPPSVSVAPGKTARITCGGDNIGSKSVHWYQQKPGQAPVLVVYDDSDRPSGIPERFSGSNSGNTATLTISRVEAGDEADYYCQVWDSSNDLLIFGGGTKLTVLGQPKAAPSVTLFPPSSEELQANKATLVCLISDFYPGAVTVAWKADSSPVKAGVETTTPSKQSNNKYAASSYLSLTPEQWKSHRSYSCQVTHEGSTVEKTVAPTECS | 1.12 | 0.00142 | 1.27e+06
2 | anti-mutCALR antibody clone 142 (antibody, human IgG1, lambda, N297A, V domains shown, human IgG1 N297A variant of clone 15) VH: EVQLVQSGAEVKKPGASVKVSCKVSGYTLTELSMQWVRQAPGKGLEWMGGFDPDEGETMYAEKFQGRLTVTEDTSTDTVYMELSSLRSEDTAVYFCATSPGYDFFDYWGQGTLVTVSS VL: SYVLTQPPSVSVAPGKTARITCGGDNIGSKSVHWYQQKPGQAPVLVVYDDSDRPSGIPERFSGSNSGNTATLTISRVEAGDEADYYCQVWDSSNDLLIFGGGTKLTVLG | 2.27 | 0.00269 | 1.19e+06
3 | anti-mutCALR antibody clone 139 (antibody, human IgG1, lambda, N297A, V domains shown, human IgG1 N297A variant of clone 15) VH: EVQLVQSGAEVKKPGASVKVSCKVSGYTLTELSMQWVRQAPGKGLEWMGGFDPDDGETMYAEKFQGRLTVTEDTSTDTVYMELSSLRSEDTAVYFCATSPGYDFFDYWGQGTLVTVSS VL: SYVLTQPPSVSVAPGKTARITCGGDNIGSKSVHWYQQKPGQAPVLVVYDDSDRPSGIPERFSGSNSGNTATLTISRVEAGDEADYYCQVWDSSNDLLIFGGGTKLTVLG | 0.966 | 0.000953 | 987000
4 | anti-mutCALR antibody clone 136 (antibody, human IgG1, lambda, N297A, V domains shown, human IgG1 N297A variant of clone 15) VH: EVQLVQSGAEVKKPGASVKVSCKVSGYTLTELSMQWVRQAPGKGLEWMGGFDPDSGETMYAEKFQGRLTVTEDTSTDTVYMELRSLTSEDTALYFCATSPGYDFFDYWGQGTLVTVSS VL: SYVLTQPPSVSVAPGKTARITCGGDNIGSKSVHWYQQKPGQAPVLVVYDDSDRPSGIPERFSGSNSGNTATLTISRVEAGDEADYYCQVWDSSNDLLIFGGGTKLTVLG | 6.7 | 0.00507 | 756000
5 | anti-mutCALR antibody clone 171 (antibody, human IgG1, lambda, N297A, V domains shown, human IgG1 N297A variant of clone 17) VH: EVQLVQSGAEVKKPGASVKVSCKVSGYTLTELSMQWVRQAPGKGLEWMGGFDPDAGETMYAEKFQGRLTVTEDTSTDTVYMELRSLTSEDTALYFCATSPGYDFFDYWGQGTLVTVSS VL: SYVLTQPPSVSVAPGQTARITCGGSDIGDEIVHWYQQKPGQAPVLVVYDDSDRPSGIPERFSGSNSGNTATLTISRAQAGDEADYYCQVWDSSSDHLIFGGGTKLTVLG | 1.65 | 0.0109 | 6.57e+06
6 | anti-mutCALR antibody clone 172 (antibody, human IgG1, lambda, N297A, V domains shown, human IgG1 N297A variant of clone 17) VH: EVQLVQSGAEVKKPGASVKVSCKVSGYTLTELSMQWVRQAPGKGLEWMGGFDPDSGETMYAEKFQGRLTVTEDTSTDTVYMELRSLTSEDTALYFCATSPGYDFFDYWGQGTLVTVSS VL: SYVLTQPPSVSVAPGQTARITCGGSDIGDEIVHWYQQKPGQAPVLVVYDDSDRPSGIPERFSGSNSGNTATLTISRAQAGDEADYYCQVWDSSSDHLIFGGGTKLTVLG | 2.24 | 0.0025 | 1.12e+06
7 | anti-mutCALR antibody clone 137 (antibody, human IgG1, lambda, N297A, V domains shown, human IgG1 N297A variant of clone 15) VH: EVQLVQSGAEVKKPGASVKVSCKVSGYTLTELSMQWVRQAPGKGLEWMGGFDPDEGETMYAEKFQGRLTVTEDTSTDTVYMELRSLTSEDTALYFCATSPGYDFFDYWGQGTLVTVSS VL: SYVLTQPPSVSVAPGKTARITCGGDNIGSKSVHWYQQKPGQAPVLVVYDDSDRPSGIPERFSGSNSGNTATLTISRVEAGDEADYYCQVWDSSNDLLIFGGGTKLTVLG | 1.27 | 0.0095 | 7.51e+06
8 | anti-mutCALR antibody clone 143 (antibody, human IgG1, lambda, N297A, V domains shown, human IgG1 N297A variant of clone 15) VH: EVQLVQSGAEVKKPGASVKVSCKVSGYTLTELSMQWVRQAPGKGLEWMGGFDPDDAETMYAEKFQGRLTVTEDTSTDTVYMELSSLRSEDTAVYFCATSPGYDFFDYWGQGTLVTVSS VL: SYVLTQPPSVSVAPGKTARITCGGDNIGSKSVHWYQQKPGQAPVLVVYDDSDRPSGIPERFSGSNSGNTATLTISRVEAGDEADYYCQVWDSSNDLLIFGGGTKLTVLG | 1.31 | 0.00753 | 5.74e+06
9 | anti-mutCALR antibody clone 138 (antibody, human IgG1, lambda, N297A, V domains shown, human IgG1 N297A variant of clone 15) VH: EVQLVQSGAEVKKPGASVKVSCKVSGYTLTELSMQWVRQAPGKGLEWMGGFDPDDAETMYAEKFQGRLTVTEDTSTDTVYMELRSLTSEDTALYFCATSPGYDFFDYWGQGTLVTVSS VL: SYVLTQPPSVSVAPGKTARITCGGDNIGSKSVHWYQQKPGQAPVLVVYDDSDRPSGIPERFSGSNSGNTATLTISRVEAGDEADYYCQVWDSSNDLLIFGGGTKLTVLG | 0.875 | 0.00688 | 7.86e+06
10 | anti-mutCALR antibody clone 170 (antibody, human IgG1, lambda, N297A, human IgG1 N297A variant of clone 17) heavy: not shown light: SYVLTQPPSVSVAPGQTARITCGGSDIGDEIVHWYQQKPGQAPVLVVYDDSDRPSGIPERFSGSNSGNTATLTISRAQAGDEADYYCQVWDSSSDHLIFGGGTKLTVLGQPKAAPSVTLFPPSSEELQANKATLVCLISDFYPGAVTVAWKADSSPVKAGVETTTPSKQSNNKYAASSYLSLTPEQWKSHRSYSCQVTHEGSTVEKTVAPTECS | 0.419 | 0.00179 | 4.27e+06
11 | anti-mutCALR antibody clone 140 (antibody, human IgG1, lambda, N297A, V domains shown, human IgG1 N297A variant of clone 15) VH: EVQLVQSGAEVKKPGASVKVSCKVSGYTLTELSMQWVRQAPGKGLEWMGGFDPDAGETMYAEKFQGRLTVTEDTSTDTVYMELSSLRSEDTAVYFCATSPGYDFFDYWGQGTLVTVSS VL: SYVLTQPPSVSVAPGKTARITCGGDNIGSKSVHWYQQKPGQAPVLVVYDDSDRPSGIPERFSGSNSGNTATLTISRVEAGDEADYYCQVWDSSNDLLIFGGGTKLTVLG | 7.09 | 0.00541 | 763000
12 | anti-mutCALR antibody clone 141 (antibody, human IgG1, lambda, N297A, V domains shown, human IgG1 N297A variant of clone 15) VH: EVQLVQSGAEVKKPGASVKVSCKVSGYTLTELSMQWVRQAPGKGLEWMGGFDPDSGETMYAEKFQGRLTVTEDTSTDTVYMELSSLRSEDTAVYFCATSPGYDFFDYWGQGTLVTVSS VL: SYVLTQPPSVSVAPGKTARITCGGDNIGSKSVHWYQQKPGQAPVLVVYDDSDRPSGIPERFSGSNSGNTATLTISRVEAGDEADYYCQVWDSSNDLLIFGGGTKLTVLG | 4.47 | 0.0187 | 4.18e+06
13 | anti-mutCALR antibody clone 135 (antibody, human IgG1, lambda, N297A, V domains shown, human IgG1 N297A variant of clone 15) VH: EVQLVQSGAEVKKPGASVKVSCKVSGYTLTELSMQWVRQAPGKGLEWMGGFDPDAGETMYAEKFQGRLTVTEDTSTDTVYMELRSLTSEDTALYFCATSPGYDFFDYWGQGTLVTVSS VL: SYVLTQPPSVSVAPGKTARITCGGDNIGSKSVHWYQQKPGQAPVLVVYDDSDRPSGIPERFSGSNSGNTATLTISRVEAGDEADYYCQVWDSSNDLLIFGGGTKLTVLG | 5.17 | 0.00512 | 991000
14 | anti-mutCALR antibody clone 173 (antibody, human IgG1, lambda, N297A, V domains shown) VH: EVQLVQSGAEVKKPGASVKVSCKVSGYTLTELSMQWVRQAPGKGLEWMGGFDPDEGETMYAEKFQGRLTVTEDTSTDTVYMELRSLTSEDTALYFCATSPGYDFFDYWGQGTLVTVSS VL: SYVLTQPPSVSVAPGQTARITCGGSDIGDEIVHWYQQKPGQAPVLVVYDDSDRPSGIPERFSGSNSGNTATLTISRAQAGDEADYYCQVWDSSSDHLIFGGGTKLTVLG | 0.653 | 0.00349 | 5.35e+06
